Experimental data from patent US20210206841A1 (RESEARCH INSTITUTE AT NATIONWIDE CHILDREN S HOSPITAL, published 2021).
Numbering of substitutions follows the chain as printed.

T1: native IHFNTHI (integration host factor of nontypeable Haemophilus influenzae) (nontypeable Haemophilus influenzae …, UniProt P43723 1-96; P43724 1-94)
T1 construct: also called NTHI IHF
T1 sequence 1: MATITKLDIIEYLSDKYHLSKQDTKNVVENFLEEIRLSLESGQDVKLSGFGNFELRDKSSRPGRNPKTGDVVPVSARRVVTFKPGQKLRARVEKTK
T1 sequence 2: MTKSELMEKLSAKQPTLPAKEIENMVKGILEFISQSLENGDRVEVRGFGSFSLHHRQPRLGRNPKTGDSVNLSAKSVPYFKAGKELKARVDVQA

T2: tip-chimeric peptide IhfA5-mIhfB4NTHI (nontypeable Haemophilus influenzae …)
T2 construct: also called IHF(NTHI) tip chimeric peptide; IHFNTHI tip chimeric peptide
T2 peptide: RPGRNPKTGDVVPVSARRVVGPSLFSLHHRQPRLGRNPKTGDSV

T3: tail-chimeric peptide IhfA3-IhfB2NTHI (nontypeable Haemophilus influenzae …)
T3 construct: also called IHF(NTHI) tail chimeric peptide; IHFNTHI tail chimeric peptide
T3 peptide: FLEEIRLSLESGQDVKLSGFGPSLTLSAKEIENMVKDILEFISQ

B1: humanized anti-tip monoclonal antibody, heavy chain SEQ ID NO: 3 and light chain SEQ ID NO: 8 (antibody, V domains shown)
VH: EVKLVQSGAEVKKPGASVKVSCKASGFTFRTYAMSWVRQAPGQRLEWVATIGSDRRHTYYPDKFQGRVTITRDNAKNTLYMELSSLRSEDTAVYYCVGPYDGYYGEFDYWGQGTLVTVSS
VL: DVVMTQSPLSLPVTLGQPASISCRSSQSLLDSDGKTFLNWLQQRPGQSPRRLIYLVSKRDSGVPDRFSGSGSGTDFTLKISRVEAEDVGVYYCWQGTHFPYTFGQGTKLEIKR
notes: also called H10212 (1F8.F1 Humanized HC3) + L10211 (1F8.F1 Humanized LC2)
B2: humanized anti-tail monoclonal antibody, heavy chain SEQ ID NO: 5 and light chain SEQ ID NO: 10 (antibody, V domains shown)
VH: EVQLVESGGGLVKPGGSLRLSCAASGFTFSRYGMSWVRQAPGKGLEWVSTISSGGSYTYYTDSVKGRFTISRDNAKNSLYLQMNSLRAEDTAVYYCERHGGDGYWYFDVWGQGTMVTVSS
VL: DIQMTQSPSSLSASVGDRVTITCRASQDISNYLNWYQQKPGKAVKLLIYYTSRLHSGVPSRFSGSGSGTDYTLTISSLQPEDFATYFCQQGNPLRTFGGGTKVEIKR
notes: also called H10214 (11E7.C7 Humanized HC2) + L10213 (11E7.C7 Humanized LC1)
B3: humanized anti-tail monoclonal antibody, heavy chain SEQ ID NO: 5 and light chain SEQ ID NO: 11 (antibody, V domains shown)
VH: B2 VH
VL: B2 VL with F87Y
notes: also called H10214 (11E7.C7 Humanized HC2) + L10214 (11E7.C7 Humanized LC2)
B4: humanized anti-tail monoclonal antibody, heavy chain SEQ ID NO: 5 and light chain SEQ ID NO: 12 (antibody, V domains shown)
VH: B2 VH
VL: DIVMTQSPATLSLSPGERATLSCRASQDISNYLNWYQQKPGQAVRLLIYYTSRLHSGIPARFSGSGSGTDYTLTISSLEPEDFAVYFCQQGNPLRTFGGGTKVEIKR
notes: also called H10214 (11E7.C7 Humanized HC2) + L10215 (11E7.C7 Humanized LC3)
B5: humanized anti-tail monoclonal antibody, heavy chain SEQ ID NO: 6 and light chain SEQ ID NO: 12 (antibody, V domains shown)
VH: B2 VH with K13Q, G16R, A23T, S49A, S78I, R87K, A88T
VL: B4 VL
notes: also called H10215 (11E7.C7 Humanized HC3) + L10215 (11E7.C7 Humanized LC3)
B6: humanized anti-tail monoclonal antibody, heavy chain SEQ ID NO: 6 and light chain SEQ ID NO: 10 (antibody, V domains shown)
VH: B2 VH with K13Q, G16R, A23T, S49A, S78I, R87K, A88T
VL: B2 VL
notes: also called H10215 (11E7.C7 Humanized HC3) + L10213 (11E7.C7 Humanized LC1)
B7: humanized anti-tail monoclonal antibody, heavy chain SEQ ID NO: 6 and light chain SEQ ID NO: 11 (antibody, V domains shown)
VH: B2 VH with K13Q, G16R, A23T, S49A, S78I, R87K, A88T
VL: B2 VL with F87Y
notes: also called H10215 (11E7.C7 Humanized HC3) + L10214 (11E7.C7 Humanized LC2)

Target: T1, native IHFNTHI (integration host factor …)
Assay: SPR Biacore 3000, IHFNTHI immobilized, HuMab as analyte

Binder	Kd [nM]	koff [s⁻¹]	kon [M⁻¹ s⁻¹]
B1	115	0.00021	1800

Target: T2, tip-chimeric peptide IhfA5-mIhfB4NTHI
Assay: SPR Biacore 3000, peptide immobilized, HuMab as analyte

Binder	Kd [nM]	koff [s⁻¹]	kon [M⁻¹ s⁻¹]
B1	7	0.00035	51000

Target: T3, tail-chimeric peptide IhfA3-IhfB2NTHI
Assay: as above

Binder	Kd [nM]	koff [s⁻¹]	kon [M⁻¹ s⁻¹]
B2	6.1	0.00082	130000
B3	6.2	0.00076	120000
B4	9.1	0.00077	85000
B5	2.4	0.0006	250000
B6	2.5	0.00046	180000
B7	1	0.00016	160000

Target: T1, native IHFNTHI (integration host factor …)
Assay: SPR Biacore 3000, HuMab immobilized, IHFNTHI as analyte

Binder	Kd [nM]	koff [s⁻¹]	kon [M⁻¹ s⁻¹]
B1	245	0.0018	7500

Target: T2, tip-chimeric peptide IhfA5-mIhfB4NTHI
Assay: SPR Biacore 3000, HuMab immobilized, peptide as analyte

Binder	Kd [nM]	koff [s⁻¹]	kon [M⁻¹ s⁻¹]
B1	20	0.0019	95000

Target: T1, native IHFNTHI (integration host factor …)
Assay: SPR Biacore 3000, HuMab immobilized, IHFNTHI as analyte
Remark: another data set of the same source

Binder	Kd [nM]	koff [s⁻¹]	kon [M⁻¹ s⁻¹]
B2	~3.6	0.00057	160000
B3	~4.4	0.00061	140000
B4	39	0.0012	33000
B5	~143	0.0011	7700
B6	18	0.00073	25000
B7	~14.8	0.00068	46000

Target: T3, tail-chimeric peptide IhfA3-IhfB2NTHI
Assay: SPR Biacore 3000, HuMab immobilized, peptide as analyte

Binder	Kd [nM]	koff [s⁻¹]	kon [M⁻¹ s⁻¹]
B2	60	0.00029	4800
B3	47	0.00027	5700
B4	23	0.00044	20000
B5	13	0.0021	160000
B6	72	0.0013	18000
B7	67	0.0013	33000

Target: T2, tip-chimeric peptide IhfA5-mIhfB4NTHI
Assay: direct ELISA #2, peptide coated (curves reaching equilibrium)

Binder	EC50 [µg/mL]
B1	0.0934

Target: T3, tail-chimeric peptide IhfA3-IhfB2NTHI
Assay: as above

Binder	EC50 [µg/mL]
B2	0.0367
B3	0.0339
B4	0.0429
B5	0.0294
B6	0.0274
B7	0.028

Target: T2, tip-chimeric peptide IhfA5-mIhfB4NTHI
Assay: direct ELISA #1, peptide coated (curves not reaching equilibrium)

Binder	EC50 [µg/mL]
B1	0.066

Target: T3, tail-chimeric peptide IhfA3-IhfB2NTHI
Assay: as above

Binder	EC50 [µg/mL]
B2	0.007
B3	0.014
B4	0.015
B5	0.008
B6	0.013
B7	0.011

Target: T2, tip-chimeric peptide IhfA5-mIhfB4NTHI
Assay: direct binding ELISA: tip chimeric peptide coated at 2 ug/mL, antibody titrated 1:3 in 8 points, anti-human IgG Fc-HRP, absorbance at 450 nm [panel B]

Binder	EC50 [µg/mL]
B1	0.086
